Laboratory results reported in patent US20160333110A1 (CHIOME BIOSCIENCE, published 2016).
Each block holds one binder with its values, some of them ahead of it.

What was measured:
[1] = target: T1, human TROP-1/EpCAM protein transiently expressed in CHO-K1 cells (human, UniProt P16422 24-314); assay: FACS on CHO-K1 cells transiently expressing human EpCAM/TROP-1
T1 construct: whole, on cells; also called human EpCAM/TROP-1; hEpCAM; not shown: C-terminal myc/His tag from pcDNA3.1-hEpCAM-myc/His
T1 sequence (looked up): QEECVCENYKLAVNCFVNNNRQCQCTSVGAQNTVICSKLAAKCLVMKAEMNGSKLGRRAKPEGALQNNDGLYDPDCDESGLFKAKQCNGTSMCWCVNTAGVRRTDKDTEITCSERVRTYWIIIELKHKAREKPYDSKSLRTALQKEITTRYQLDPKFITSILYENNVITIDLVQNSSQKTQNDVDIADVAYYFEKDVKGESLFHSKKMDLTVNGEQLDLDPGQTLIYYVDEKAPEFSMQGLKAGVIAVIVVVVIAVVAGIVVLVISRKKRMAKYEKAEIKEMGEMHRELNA
Excerpt: (§1) Specifically, each of an expression vector (mouse TROP-2-pcDNA3.1(+), furnished by the Institute of Molecular and Cellular Biosciences, the University of Tokyo) comprising the full-length cDNA of a mouse TROP-2 gene (GenBank accession No. NM_020047, Y08830), and an expression vector (pcDNA3.1-hEpCAM-myc/His) comprising the full-length cDNA of a human TROP-1/EpCAM gene (GenBank accession No. NM_002354), was transiently introduced into CHO-K1 cells, using Lipofectamine2000 reagent (Invitrogen). Thereafter, 24 to 48 hours later, the cells were removed from a culture dish by treating them with trypsin, and a cell suspension was then prepared. The thus prepared cell suspension was successively reacted with the produced anti-hTROP-2 monoclonal antibody (0.1 μg) and with PE-labeled anti-mouse IgG, and it was then analyzed by FACSCalibur.

[2] = target: T2, recombinant hTACSTD2-Fc-His protein (Creative BioMart) (human, UniProt P09758 27-274, limits assumed); assay: low-density antigen-coated ELISA, plate coated with 0.1 µg/mL hTACSTD2-Fc-His
T2 construct: bought protein; also called hTROP-2 (low-density antigen-coated ELISA); not shown: Fc part of the bought fusion protein; not described; His tag
T2 sequence: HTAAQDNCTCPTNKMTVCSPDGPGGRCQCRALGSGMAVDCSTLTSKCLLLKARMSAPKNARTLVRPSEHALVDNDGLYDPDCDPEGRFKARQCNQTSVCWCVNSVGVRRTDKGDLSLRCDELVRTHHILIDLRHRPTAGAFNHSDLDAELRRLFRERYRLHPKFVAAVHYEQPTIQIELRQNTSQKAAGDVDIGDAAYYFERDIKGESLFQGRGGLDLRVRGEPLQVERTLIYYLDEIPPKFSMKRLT
Protocol: Furthermore, antigen affinity was also examined by an ELISA method. ELISA was carried out using an ELISA plate which was coated with the recombinant protein of the hTROP-2 extracellular region as described in Example 3. […] Thereafter, the resultant was washed with a washing buffer (PBS containing 0.05% Tween 20), and a blocking buffer (PBS containing 2% skim milk and 0.05% Tween 20) was then added thereto (200 μl/well) to block it (at room temperature for 1 hour). The resultant was washed with a washing buffer. […] The obtained dilution samples were each added in an amount of 50 μl/well to the above-described ELISA plate (at room temperature for 2 hours). […] After the mixture had been washed with a washing buffer, a TMB (3,3′,5,5′-tetramethylbenzidine: SIGMA) substrate solution was added (50 μl/well) to the resultant to carry out a color reaction. Then, 1 M sulfuric acid (25 μl/well) was added to the reaction product to terminate the reaction. Using Microplate reader Model 550 (BioRad), an absorbance at 450 nm was measured with an absorbance at 655 nm used as a reference.

[3] = target: T3, human TROP-2 (hTROP-2) endogenously expressed on the cell surface of human cancer cell lines (human, UniProt P09758 27-323); assay: FACS on PK-59 cells, 0.1 µg antibody
T3 construct: also called TACSTD2; PK-59 cells
T3 sequence: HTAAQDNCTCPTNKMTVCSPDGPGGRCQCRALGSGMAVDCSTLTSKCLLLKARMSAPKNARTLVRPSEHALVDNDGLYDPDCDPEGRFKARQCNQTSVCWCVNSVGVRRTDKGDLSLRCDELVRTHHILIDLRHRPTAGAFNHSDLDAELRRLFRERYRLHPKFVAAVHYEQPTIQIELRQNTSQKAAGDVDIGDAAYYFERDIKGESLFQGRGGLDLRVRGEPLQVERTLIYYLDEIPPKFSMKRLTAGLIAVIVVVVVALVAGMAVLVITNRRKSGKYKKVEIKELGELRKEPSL
Protocol: (§2) Cancer cells were removed from a culture dish by a trypsin treatment, and a cell suspension was then prepared (cell density: 2×10⁶ cells/mL). An anti-hTROP-2 monoclonal antibody (0.1 μg) was added to 100 μL of the cell suspension, and they were then reacted at 4° C. for 20 minutes. The reaction solution was washed with PBS, and it was then reacted with PE-labeled anti-mouse IgG (BD Biosciences Pharmingen) (0.1 μg) (at 4° C. for 30 minutes). Thereafter, the resultant was analyzed by FACSCalibur (Becton, Dickinson and Company).
(§3) Subsequently, the reactivity of the generated anti-hTROP-2 monoclonal antibodies with human cancer cell lines (in which an hTROP-2 protein was endogenously expressed on the cell surface) was examined by FACS analysis.

[4] = target: T4, mouse TROP-2 protein transiently expressed in CHO-K1 cells (mouse, UniProt Q8BGV3 25-317); assay: FACS on CHO-K1 cells transiently expressing mouse TROP-2
T4 construct: whole, on cells
T4 sequence (looked up): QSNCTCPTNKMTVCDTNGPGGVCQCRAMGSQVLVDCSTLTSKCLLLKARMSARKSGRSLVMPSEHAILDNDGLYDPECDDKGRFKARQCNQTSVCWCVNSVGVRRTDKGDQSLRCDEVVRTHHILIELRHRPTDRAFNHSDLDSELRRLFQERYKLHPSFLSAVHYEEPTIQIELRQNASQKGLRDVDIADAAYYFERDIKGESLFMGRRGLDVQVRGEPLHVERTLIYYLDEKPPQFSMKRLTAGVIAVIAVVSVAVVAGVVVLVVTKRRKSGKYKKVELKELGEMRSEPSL
Excerpt: as §1

[5] = target: T3, human TROP-2 (hTROP-2) endogenously …; assay: FACS on BxPC-3 cells, 0.1 µg antibody
Protocol: as §2, §3

binding result [1]: no binding (tested: 0.1 µg antibody) | EC50 [2]: 0.012 µg/mL | mean fluorescence intensity, times that with PE-labeled anti-mouse IgG alone [3]: 44 times | binding result [4]: no binding (tested: 0.1 µg antibody) | mean fluorescence intensity, times that with PE-labeled anti-mouse IgG alone [5]: 45 times
B1: anti-hTROP-2 monoclonal antibody clone K5-70 (antibody, mouse IgG2a, V domains shown)
VH: QVQLQQPGAELVRPGASVKLSCKASGYTFTIYWINWVKQRPGQGLEWIGNIYPSDSYTNYNQKFKDKATLTVDKSSSTAYMQLSSPTSEDSAVYYCTRTSMADYWGQGTTLTVSS
VL: DILLTQSPAILSVSPGERVSFSCRASQSIGTSIHWYQQRTNGSPRLLIKYASESISGIPSRFSGSGSGTDFTLSINSVESEDIADYYCQQSNSWPFTFGSGTKLEIK
notes: mouse IgG2a, hybridoma FERM BP-11251; also called K5-70 antibody; mouse K5-70 antibody

binding result [1]: no binding (tested: 0.1 µg antibody) | EC50 [2]: 0.041 µg/mL | mean fluorescence intensity, times that with PE-labeled anti-mouse IgG alone [3]: 59 times | binding result [4]: no binding (tested: 0.1 µg antibody) | mean fluorescence intensity, times that with PE-labeled anti-mouse IgG alone [5]: 25 times
B2: anti-hTROP-2 monoclonal antibody clone T6-16 (antibody, mouse IgG2a, V domains shown)
VH: EVQLQQSGPELVKPGASVKISCKASGYTFTDYNMHWVKQSHGKNLEWIGYIYPYNGGTGYNQRFKSRATMTVDKSSSTAYMELRSLTSDDSAVYYCAREDYGSSPSYAMDYWGQGTSVIVSS
VL: DVVMTQTPLSLPVSLGDQASISCRSSQSLVHGNGNTYLHWYLQKPGQSPKLLIYKVSNRFSGVPDRFSGSGSGTDFTLKISRVEAEDLGVYFCSQTTHVPTFGSGTKLEIK
notes: mouse IgG2a, hybridoma FERM BP-11346; also called T6-16 antibody
